Results as given in the supplement of paper PMC10065799, “High-throughput profiling of sequence recognition by tyrosine kinases and SH2 domains using bacterial peptide display” (eLife, 2023).

How the values were obtained:
EPHB1 = EPHB1 (UniProt P54762); assay: phosphorylation enrichment, bacterial display (enrichment ratio); higher = better substrate or ligand; peptides without Tyr show the background
Fer (mouse) = assay: as above
AncSZ = assay: as above
Fes = Fes (UniProt P07332); assay: as above
MERTK = MERTK (UniProt Q12866); assay: as above
Sequence of MERTK (Q12866 whole entry, looked up): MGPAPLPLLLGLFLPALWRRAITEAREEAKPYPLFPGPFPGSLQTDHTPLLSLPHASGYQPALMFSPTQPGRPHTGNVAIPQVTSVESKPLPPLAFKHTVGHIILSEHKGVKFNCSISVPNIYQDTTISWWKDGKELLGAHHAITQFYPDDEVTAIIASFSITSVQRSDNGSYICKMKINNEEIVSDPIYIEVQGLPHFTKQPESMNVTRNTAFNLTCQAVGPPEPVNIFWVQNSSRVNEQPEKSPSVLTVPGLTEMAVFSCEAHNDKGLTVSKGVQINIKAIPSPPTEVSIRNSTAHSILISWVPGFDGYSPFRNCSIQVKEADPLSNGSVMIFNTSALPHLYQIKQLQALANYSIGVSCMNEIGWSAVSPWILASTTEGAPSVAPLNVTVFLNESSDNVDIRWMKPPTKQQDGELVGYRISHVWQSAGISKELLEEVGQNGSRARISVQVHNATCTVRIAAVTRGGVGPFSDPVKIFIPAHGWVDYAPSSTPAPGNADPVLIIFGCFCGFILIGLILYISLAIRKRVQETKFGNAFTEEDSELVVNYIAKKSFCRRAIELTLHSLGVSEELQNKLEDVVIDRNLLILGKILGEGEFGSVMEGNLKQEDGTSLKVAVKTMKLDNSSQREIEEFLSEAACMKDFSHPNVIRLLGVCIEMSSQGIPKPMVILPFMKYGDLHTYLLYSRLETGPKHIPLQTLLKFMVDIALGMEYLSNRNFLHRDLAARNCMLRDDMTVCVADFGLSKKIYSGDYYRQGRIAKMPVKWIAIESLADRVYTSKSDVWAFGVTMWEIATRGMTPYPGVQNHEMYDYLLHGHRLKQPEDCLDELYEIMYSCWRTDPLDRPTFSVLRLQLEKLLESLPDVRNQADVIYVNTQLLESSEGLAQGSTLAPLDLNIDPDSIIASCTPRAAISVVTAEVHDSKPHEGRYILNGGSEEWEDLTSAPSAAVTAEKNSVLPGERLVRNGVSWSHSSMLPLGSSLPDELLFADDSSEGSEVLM

FGFR3 = FGFR3 (UniProt P22607); assay: as above
Fyn = Fyn (UniProt P06241); assay: as above
Sequence of Fyn (P06241 whole entry, looked up): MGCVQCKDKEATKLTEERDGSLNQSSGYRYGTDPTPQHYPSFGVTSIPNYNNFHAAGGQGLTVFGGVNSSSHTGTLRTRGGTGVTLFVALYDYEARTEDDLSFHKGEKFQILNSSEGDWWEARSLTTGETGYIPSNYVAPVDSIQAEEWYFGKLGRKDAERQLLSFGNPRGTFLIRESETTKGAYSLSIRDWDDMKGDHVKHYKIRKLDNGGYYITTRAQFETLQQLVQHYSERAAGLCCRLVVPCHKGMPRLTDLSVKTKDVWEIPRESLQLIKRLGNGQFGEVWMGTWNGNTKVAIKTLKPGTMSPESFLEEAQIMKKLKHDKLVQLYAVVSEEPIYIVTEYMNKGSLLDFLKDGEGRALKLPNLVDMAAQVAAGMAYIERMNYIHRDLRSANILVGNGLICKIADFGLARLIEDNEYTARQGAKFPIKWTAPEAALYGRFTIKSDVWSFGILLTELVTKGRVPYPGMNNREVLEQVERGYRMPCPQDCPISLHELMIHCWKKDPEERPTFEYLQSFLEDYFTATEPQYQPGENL

c-Abl (mouse) = assay: as above
Hck = Hck (UniProt P08631); assay: as above
Sequence of Hck (P08631 whole entry, looked up): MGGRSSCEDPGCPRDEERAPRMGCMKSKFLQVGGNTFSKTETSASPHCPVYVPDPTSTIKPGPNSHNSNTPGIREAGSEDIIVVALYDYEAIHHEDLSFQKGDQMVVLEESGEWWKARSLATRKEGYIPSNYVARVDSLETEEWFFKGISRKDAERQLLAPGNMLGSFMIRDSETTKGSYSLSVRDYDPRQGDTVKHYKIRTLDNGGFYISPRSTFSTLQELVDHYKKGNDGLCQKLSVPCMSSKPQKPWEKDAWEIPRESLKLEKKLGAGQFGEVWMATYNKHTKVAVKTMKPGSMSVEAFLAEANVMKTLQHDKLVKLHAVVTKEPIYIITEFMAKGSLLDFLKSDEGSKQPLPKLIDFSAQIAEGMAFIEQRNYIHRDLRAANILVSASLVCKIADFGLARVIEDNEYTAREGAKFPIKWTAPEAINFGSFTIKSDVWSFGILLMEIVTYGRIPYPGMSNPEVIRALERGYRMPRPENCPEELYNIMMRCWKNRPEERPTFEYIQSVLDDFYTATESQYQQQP

Jak2 = Jak2 (UniProt O60674); assay: as above
EPHB2 = EPHB2 (UniProt P29323); assay: as above
Sequence of EPHB2 (P29323 whole entry, looked up): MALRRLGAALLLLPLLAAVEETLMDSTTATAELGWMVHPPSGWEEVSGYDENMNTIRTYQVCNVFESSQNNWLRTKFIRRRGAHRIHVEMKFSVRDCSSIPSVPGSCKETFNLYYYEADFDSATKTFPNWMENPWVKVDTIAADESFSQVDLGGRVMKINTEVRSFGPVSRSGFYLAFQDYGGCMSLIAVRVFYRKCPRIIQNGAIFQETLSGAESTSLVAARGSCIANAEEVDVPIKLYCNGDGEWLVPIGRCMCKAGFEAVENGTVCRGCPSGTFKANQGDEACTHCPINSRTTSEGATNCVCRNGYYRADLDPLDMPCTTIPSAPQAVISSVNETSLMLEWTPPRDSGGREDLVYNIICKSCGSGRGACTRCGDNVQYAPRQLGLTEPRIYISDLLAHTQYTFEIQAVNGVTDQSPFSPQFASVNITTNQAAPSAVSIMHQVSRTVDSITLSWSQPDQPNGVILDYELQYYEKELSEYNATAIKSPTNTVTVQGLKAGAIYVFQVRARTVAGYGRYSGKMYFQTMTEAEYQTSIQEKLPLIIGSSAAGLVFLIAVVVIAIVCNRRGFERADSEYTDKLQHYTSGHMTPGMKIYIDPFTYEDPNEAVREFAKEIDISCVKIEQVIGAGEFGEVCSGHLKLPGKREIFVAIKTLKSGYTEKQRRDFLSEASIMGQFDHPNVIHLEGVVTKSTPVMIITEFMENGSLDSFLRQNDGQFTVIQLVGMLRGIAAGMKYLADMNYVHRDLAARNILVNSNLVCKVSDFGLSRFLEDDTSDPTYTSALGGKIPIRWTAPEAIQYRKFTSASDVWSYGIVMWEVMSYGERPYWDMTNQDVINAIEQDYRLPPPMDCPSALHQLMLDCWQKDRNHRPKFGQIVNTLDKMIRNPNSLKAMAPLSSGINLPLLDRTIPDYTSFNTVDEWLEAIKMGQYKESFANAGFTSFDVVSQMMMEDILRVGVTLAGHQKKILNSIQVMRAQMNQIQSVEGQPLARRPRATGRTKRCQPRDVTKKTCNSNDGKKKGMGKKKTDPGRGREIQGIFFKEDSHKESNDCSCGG

FGFR1 = FGFR1 (UniProt P11362); assay: as above
Sequence of FGFR1 (P11362 whole entry, looked up): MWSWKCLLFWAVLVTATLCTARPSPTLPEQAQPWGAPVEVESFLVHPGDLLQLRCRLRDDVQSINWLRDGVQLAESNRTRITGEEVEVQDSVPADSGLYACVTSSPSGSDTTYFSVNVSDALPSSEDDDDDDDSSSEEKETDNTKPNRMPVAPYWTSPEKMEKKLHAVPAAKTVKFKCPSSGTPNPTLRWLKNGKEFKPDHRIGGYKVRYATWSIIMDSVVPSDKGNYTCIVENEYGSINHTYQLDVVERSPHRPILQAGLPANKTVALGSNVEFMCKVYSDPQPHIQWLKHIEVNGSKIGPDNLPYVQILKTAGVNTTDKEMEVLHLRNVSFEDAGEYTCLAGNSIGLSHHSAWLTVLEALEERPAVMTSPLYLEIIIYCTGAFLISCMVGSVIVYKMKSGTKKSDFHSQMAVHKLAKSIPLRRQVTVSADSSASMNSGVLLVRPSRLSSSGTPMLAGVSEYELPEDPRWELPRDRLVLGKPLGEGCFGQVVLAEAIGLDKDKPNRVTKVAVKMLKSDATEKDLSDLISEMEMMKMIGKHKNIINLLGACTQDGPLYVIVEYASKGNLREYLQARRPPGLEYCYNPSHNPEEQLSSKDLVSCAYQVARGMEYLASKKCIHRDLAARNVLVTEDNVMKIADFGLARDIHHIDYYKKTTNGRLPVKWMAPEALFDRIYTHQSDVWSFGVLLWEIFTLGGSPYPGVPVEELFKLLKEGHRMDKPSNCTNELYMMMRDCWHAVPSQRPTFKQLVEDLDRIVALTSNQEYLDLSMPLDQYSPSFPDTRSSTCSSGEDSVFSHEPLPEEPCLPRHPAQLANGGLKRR

c-Src = assay: as above
Grb2 SH2 = Grb2 SH2 (UniProt P62993); assay: SH2 binding enrichment of the phosphorylated peptide, bacterial display (enrichment ratio); higher = better substrate or ligand; peptides without Tyr show the background
c-Src SH2 = assay: as above
SHP2-C SH2 = assay: as above
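For SH2 binding enrichment of the phosphorylated peptide, bacterial display in this document: peptide library displayed on the E. coli surface as eCPX fusions, selected cells deep-sequenced, score is each peptide's frequency after selection divided by its frequency in the input.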
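For phosphorylation enrichment, bacterial display in this document: 11-residue human phosphosite peptides and single-mutation variants displayed on the E. coli surface, counted by deep sequencing, each peptide's frequency after selection divided by its frequency in the unselected input library; frequency after pTyr selection over input frequency; kinase dosed for 20-30% of maximal phosphorylation in three min.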

Sequence of EPHB1 (P54762 whole entry, looked up): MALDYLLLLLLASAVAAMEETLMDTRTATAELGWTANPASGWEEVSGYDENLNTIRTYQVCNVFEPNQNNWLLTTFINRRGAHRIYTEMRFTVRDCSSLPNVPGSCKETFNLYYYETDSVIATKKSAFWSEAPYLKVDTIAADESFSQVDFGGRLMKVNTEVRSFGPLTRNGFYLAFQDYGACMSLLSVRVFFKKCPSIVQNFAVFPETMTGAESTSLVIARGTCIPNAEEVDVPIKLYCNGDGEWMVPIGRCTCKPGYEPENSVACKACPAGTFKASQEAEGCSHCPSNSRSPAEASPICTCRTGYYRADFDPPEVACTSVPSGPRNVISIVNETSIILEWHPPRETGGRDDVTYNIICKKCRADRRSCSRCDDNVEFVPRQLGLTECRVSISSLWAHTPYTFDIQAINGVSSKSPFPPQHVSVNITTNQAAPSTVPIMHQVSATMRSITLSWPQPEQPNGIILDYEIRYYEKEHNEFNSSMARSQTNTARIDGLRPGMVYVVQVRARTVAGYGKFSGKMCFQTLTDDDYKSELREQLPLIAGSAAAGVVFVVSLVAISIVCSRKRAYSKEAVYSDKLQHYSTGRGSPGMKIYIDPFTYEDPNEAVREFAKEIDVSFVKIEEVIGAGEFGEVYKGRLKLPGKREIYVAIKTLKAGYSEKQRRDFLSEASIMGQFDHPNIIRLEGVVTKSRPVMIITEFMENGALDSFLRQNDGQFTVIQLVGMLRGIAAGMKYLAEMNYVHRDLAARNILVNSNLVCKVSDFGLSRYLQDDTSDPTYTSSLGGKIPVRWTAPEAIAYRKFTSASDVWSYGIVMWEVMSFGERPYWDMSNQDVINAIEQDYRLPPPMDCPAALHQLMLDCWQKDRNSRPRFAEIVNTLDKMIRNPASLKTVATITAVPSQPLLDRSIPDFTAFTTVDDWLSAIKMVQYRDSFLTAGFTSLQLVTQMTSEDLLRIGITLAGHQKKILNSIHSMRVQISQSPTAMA

| Sequence | SH2 binding enrichment (Grb2 SH2) | SH2 binding enrichment (c-Src SH2) | SH2 binding enrichment (SHP2-C SH2) | phosphorylation enrichment (EPHB1) | phosphorylation enrichment (Fer (mouse)) | phosphorylation enrichment (AncSZ) | phosphorylation enrichment (Fes) | phosphorylation enrichment (MERTK) | phosphorylation enrichment (FGFR3) | phosphorylation enrichment (Fyn) | phosphorylation enrichment (c-Abl (mouse)) | phosphorylation enrichment (Hck) | phosphorylation enrichment (Jak2) | phosphorylation enrichment (EPHB2) | phosphorylation enrichment (FGFR1) | phosphorylation enrichment (c-Src) |
| --- | --- | --- | --- | --- | --- | --- | --- | --- | --- | --- | --- | --- | --- | --- | --- | --- |
| DVSVVCSEVKT [FCRL4_Y493_Y493C] | 1.1 | 0.594 | 0.581 | 0.617 | 0.537 | 1.15 | 1.3 | 0.456 | 0.838 | 0.681 | 0.867 | 0.635 | 0.995 | 0.614 | 0.625 | 0.594 |
| LYSNAYLNDLA [ALDH1A1_Y119] | 4.68 | 1.84 | 0.613 | 0.853 | 4.03 | 0.831 | 0.914 | 5.82 | 0.776 | 1.19 | 0.396 | 1.45 | 0.667 | 0.685 | 0.484 | 1.1 |
| DRIVNYSRASI [ATP7A_Y1459] | 0.768 | 0.498 | 0.88 | 0.432 | 0.41 | 0.538 | 0.589 | 0.383 | 0.426 | 0.374 | 0.585 | 0.405 | 0.48 | 0.4 | 0.423 | 0.37 |
| SFHSSYSEIKD [DCLRE1C_Y322] | 0.982 | 22.5 | 4.96 | 0.435 | 0.52 | 0.738 | 0.744 | 0.57 | 0.681 | 0.512 | 0.448 | 0.51 | 0.559 | 0.532 | 0.554 | 0.506 |
| GAPATYEGDAR [CACNA1A_Y1013] | 0.893 | 0.649 | 0.669 | 0.354 | 0.565 | 0.58 | 0.666 | 0.345 | 0.51 | 0.388 | 0.397 | 0.467 | 0.497 | 0.499 | 0.543 | 0.368 |
| KTDKKYLMIKE [BAG3_Y451_E455K] | 0.897 | 0.499 | 0.836 | 0.426 | 0.373 | 0.64 | 0.877 | 0.408 | 0.526 | 0.368 | 0.616 | 0.368 | 0.636 | 0.439 | 0.423 | 0.392 |
| FETSHYLASPD [CTNND2_Y1217_P1218L_YF] | 0.923 | 0.473 | 0.904 | 0.878 | 0.502 | 0.791 | 0.824 | 0.664 | 0.752 | 0.557 | 0.658 | 0.513 | 0.73 | 0.635 | 0.568 | 0.523 |
| QGLRLYRTHLA [BTK_Y617_P619T] | 1.34 | 1.08 | 1.31 | 0.359 | 0.42 | 0.509 | 0.478 | 0.333 | 0.365 | 0.339 | 0.448 | 0.317 | 0.577 | 0.486 | 0.306 | 0.312 |
| VLTSKYCGGGG [HBA1_Y141_R142C] | 0.884 | 0.545 | 0.804 | 0.474 | 0.394 | 0.603 | 0.772 | 0.391 | 0.577 | 0.429 | 0.747 | 0.467 | 0.634 | 0.419 | 0.384 | 0.354 |

Now from value to sequence, other results behind:

| SH2 binding enrichment (Grb2 SH2) | SH2 binding enrichment (c-Src SH2) | SH2 binding enrichment (SHP2-C SH2) | Sequence | phosphorylation enrichment (EPHB1) | phosphorylation enrichment (Fer (mouse)) | phosphorylation enrichment (AncSZ) | phosphorylation enrichment (Fes) | phosphorylation enrichment (MERTK) | phosphorylation enrichment (FGFR3) | phosphorylation enrichment (Fyn) | phosphorylation enrichment (c-Abl (mouse)) | phosphorylation enrichment (Hck) | phosphorylation enrichment (Jak2) | phosphorylation enrichment (EPHB2) | phosphorylation enrichment (FGFR1) | phosphorylation enrichment (c-Src) |
| --- | --- | --- | --- | --- | --- | --- | --- | --- | --- | --- | --- | --- | --- | --- | --- | --- |
| 0.701 | 0.446 | 0.429 | RFWPRYVKVGS [NOG_Y172] | 0.532 | 0.726 | 1.36 | 0.624 | 0.46 | 0.751 | 0.68 | 0.691 | 0.726 | 0.622 | 0.478 | 0.487 | 0.535 |
| 0.782 | 1.92 | 0.519 | GRRGQYVMPSE [TTC7A_Y396_L399P] | 0.356 | 0.39 | 0.586 | 0.557 | 0.465 | 0.394 | 0.415 | 0.482 | 0.41 | 0.323 | 0.481 | 0.433 | 0.41 |
| 0.782 | 1.41 | 1.12 | RLDRSYSYSYS [PEAR1_Y890] | 0.443 | 0.467 | 0.655 | 0.597 | 0.569 | 0.42 | 0.334 | 0.359 | 0.5 | 0.374 | 0.434 | 0.594 | 0.42 |
| 1.11 | 0.426 | 0.682 | DSKIRYLSADS [TTF1_Y476_E473K] | 0.465 | 0.368 | 0.503 | 0.663 | 0.435 | 0.546 | 0.389 | 0.508 | 0.434 | 0.611 | 0.607 | 0.457 | 0.527 |
| 0.913 | 0.557 | 0.871 | TEDPEYDVQSK [PTCHD3_Y335] | 0.521 | 0.564 | 1.18 | 1.01 | 0.358 | 0.738 | 0.616 | 0.679 | 0.669 | 0.936 | 0.661 | 0.689 | 0.435 |
| 1.22 | 1.04 | 1.26 | NFATLHLKIFH [PDE6B_Y219_Y219H_YF] | 0.607 | 0.565 | 1.26 | 1.44 | 0.56 | 0.817 | 0.519 | 0.918 | 0.492 | 1.24 | 0.74 | 0.652 | 0.522 |
| 0.807 | 0.625 | 0.632 | AELVRYFMEHH [PTPN11_Y80_Q79R_YF] | 0.458 | 0.427 | 0.653 | 0.883 | 0.421 | 0.471 | 0.414 | 0.493 | 0.46 | 0.621 | 0.526 | 0.454 | 0.433 |
